Measurements reported in the supplement of paper PMC12458215.
± gives the uncertainty stated by the source.

System: HEK293T
Assay: plasma membrane surface immunostaining intensity (anti-HA, deep receptor scanning) (arbitrary fluorescence units); higher = higher plasma membrane expression

Row | Sequence | plasma membrane surface immunostaining intensity (GPCR class: A) | other results
1 | MLSTSRSRFIRNTNESGEEVTTFFDYDYGAPCHKFDVKQIGAQLLPPLYSLVFIFGFVGNMLVVLILINCKKLKCLTDIYLLNLAISDLLFLITLPLWAHSAANEWVFGNAMCKLFTGLYHIGYFGGIFFIILLTIDRYLAIVHAVFALKARTVTFGVVTSVITWLVAVFASVPGIIFTKCQKEDSVYVCGPYFPRGWNNFHTIMRNILGLVLPLLIMVICYSGILKTLLRCRNEKKRHRAVRVIFTIMIVYFLFWTPYNIVILLNTFQEFFGLSNCESTSQLDQATQVTETLGMTHCCINPIIYAFVGEKFRSLFHIALGCRIAPLQKPVCGGPGVRPGKNVKVTTQGLLDGRGKGKSIGRAPEASLQDKEGA [CCR2] | 137 ± 20 | 
2 | MDTGPDQSYFSGNHWFVFSVYLLTFLVGLPLNLLALVVFVGKLQRRPVAVDVLLLNLTASDLLLLLFLPFRMVEAANGMHWPLPFILCPLSGFIFFTTIYLTALFLAAVSIERFLSVAHPLWYKTRPRLGQAGLVSVACWLLASAHCSVVYVIEFSGDISHSQGTNGTCYLEFRKDQLAILLPVRLEMAVVLFVVPLIITSYCYSRLVWILGRGGSHRRQRRVAGLLAATLLNFLVCFGPYNVSHVVGYICGESPAWRIYVTLLSTLNSCVDPFVYYFSSSGFQADFHELLRRLCGLWGQWQQESSMELKEQKGGEEQRADRPAERKTSEHSQGCGTGGQVACAES [FFAR3] | 6440 ± 110 | 
3 | MTFRDLLSVSFEGPRPDSSAGGSSAGGGGGSAGGAAPSEGPAVGGVPGGAGGGGGVVGAGSGEDNRSSAGEPGSAGAGGDVNGTAAVGGLVVSAQGVGVGVFLAAFILMAVAGNLLVILSVACNRHLQTVTNYFIVNLAVADLLLSATVLPFSATMEVLGFWAFGRAFCDVWAAVDVLCCTASILSLCTISVDRYVGVRHSLKYPAIMTERKAAAILALLWVVALVVSVGPLLGWKEPVPPDERFCGITEEAGYAVFSSVCSFYLPMAVIVVMYCRVYVVARSTTRSLEAGVKRERGKASEVVLRIHCRGAATGADGAHGMRSAKGHTFRSSLSVRLLKFSREKKAAKTLAIVVGVFVLCWFPFFFVLPLGSLFPQLKPSEGVFKVIFWLGYFNSCVNPLIYPCSSREFKRAFLRLLRCQCRRRRRRRPLWRVYGHHWRASTSGLRQDCAPSSGDAPPGAPLALTALPDPDPEPPGTPEMQAPVASRRKPPSAFREWRLLGPFRRPTTQLRAKVSSLSHKIRAGGAQRAEAACAQRSEVEAVSLGVPHEVAEGATCQAYELADYSNLRETDI [ADRA1D] | 125 ± 25 | 
4 | MGDNITSITEFLLLGFPVGPRIQMLLFGLFSLFYVFTLLGNGTILGLISLDSRLHAPMYFFLSHLAVVDIAYACNTVPRMLVNLLHPAKPISFAGRMMQTFLFSTFAVTECLLLVVMSYDLYVAICHPLRYLAIMTWRVCITLAVTSWTTGVLLSLIHLVLLLPLPFCRPQKIYHFFCEILAVLKLACADTHINENMVLAGAISGLVGPLSTIVVSYMCILCAILQIQSREVQRKAFCTCFSHLCVIGLFYGTAIIMYVGPRYGNPKEQKKYLLLFHSLFNPMLNPLICSLRNSEVKNTLKRVLGVERAL [OR2A7] |  | plasma membrane surface immunostaining intensity (GPCR class: A (Olfactory)): 117 ± 27
5 | MLESHLIIYFLLAVIQFLLGIFTNGIIVVVNGIDLIKHRKMAPLDLLLSCLAVSRIFLQLFIFYVNVIVIFFIEFIMCSANCAILLFINELELWLATWLGVFYCAKVASVRHPLFIWLKMRISKLVPWMILGSLLYVSMICVFHSKYAGFMVPYFLRKFFSQNATIQKEDTLAIQIFSFVAEFSVPLLIFLFAVLLLIFSLGRHTRQMRNTVAGSRVPGRGAPISALLSILSFLILYFSHCMIKVFLSSLKFHIRRFIFLFFILVIGIYPSGHSLILILGNPKLKQNAKKFLLHSKCCQ [TAS2R1] |  | plasma membrane surface immunostaining intensity (GPCR class: Taste): 212 ± 85
6 | MKMKSQATMICCLVFFLSTECSHYRSKIHLKAGDKLQSPEGKPKTGRIQEKCEGPCISSSNCSQPCAKDFHGEIGFTCNQKKWQKSAETCTSLSVEKLFKDSTGASRLSVAAPSIPLHILDFRAPETIESVAQGIRKNCPFDYACITDMVKSSETTSGNIAFIVELLKNISTDLSDNVTREKMKSYSEVANHILDTAAISNWAFIPNKNASSDLLQSVNLFARQLHIHNNSENIVNELFIQTKGFHINHNTSEKSLNFSMSMNNTTEDILGMVQIPRQELRKLWPNASQAISIAFPTLGAILREAHLQNVSLPRQVNGLVLSVVLPERLQEIILTFEKINKTRNARAQCVGWHSKKRRWDEKACQMMLDIRNEVKCRCNYTSVVMSFSILMSSKSMTDKVLDYITCIGLSVSILSLVLCLIIEATVWSRVVVTEISYMRHVCIVNIAVSLLTANVWFIIGSHFNIKAQDYNMCVAVTFFSHFFYLSLFFWMLFKALLIIYGILVIFRRMMKSRMMVIGFAIGYGCPLIIAVTTVAITEPEKGYMRPEACWLNWDNTKALLAFAIPAFVIVAVNLIVVLVVAVNTQRPSIGSSKSQDVVIIMRISKNVAILTPLLGLTWGFGIATLIEGTSLTFHIIFALLNAFQGFFILLFGTIMDHKIRDALRMRMSSLKGKSRAAENASLGPTNGSKLMNRQG [ADGRF4] |  | plasma membrane surface immunostaining intensity (GPCR class: B): 386 ± 78
7 | MTSGSVFFYILIFGKYFSHGGGQDVKCSLGYFPCGNITKCLPQLLHCNGVDDCGNQADEDNCGDNNGWSLQFDKYFASYYKMTSQYPFEAETPECLVGSVPVQCLCQGLELDCDETNLRAVPSVSSNVTAMSLQWNLIRKLPPDCFKNYHDLQKLYLQNNKITSISIYAFRGLNSLTKLYLSHNRITFLKPGVFEDLHRLEWLIIEDNHLSRISPPTFYGLNSLILLVLMNNVLTRLPDKPLCQHMPRLHWLDLEGNHIHNLRNLTFISCSNLTVLVMRKNKINHLNENTFAPLQKLDELDLGSNKIENLPPLIFKDLKELSQLNLSYNPIQKIQANQFDYLVKLKSLSLEGIEISNIQQRMFRPLMNLSHIYFKKFQYCGYAPHVRSCKPNTDGISSLENLLASIIQRVFVWVVSAVTCFGNIFVICMRPYIRSENKLYAMSIISLCCADCLMGIYLFVIGGFDLKFRGEYNKHAQLWMESTHCQLVGSLAILSTEVSVLLLTFLTLEKYICIVYPFRCVRPGKCRTITVLILIWITGFIVAFIPLSNKEFFKNYYGTNGVCFPLHSEDTESIGAQIYSVAIFLGINLAAFIIIVFSYGSMFYSVHQSAITATEIRNQVKKEMILAKRFFFIVFTDALCWIPIFVVKFLSLLQVEIPGTITSWVVIFILPINSALNPILYTLTTRPFKEMIHRFWYNYRQRKSMDSKGQKTYAPSFIWVEMWPLQEMPPELMKPDLFTYPCEMSLISQSTRLNSYS [RXFP1] | 165 ± 19 | 
8 | MEGALAANWSAEAANASAAPPGAEGNRTAGPPRRNEALARVEVAVLCLILLLALSGNACVLLALRTTRQKHSRLFFFMKHLSIADLVVAVFQVLPQLLWDITFRFYGPDLLCRLVKYLQVVGMFASTYLLLLMSLDRCLAICQPLRSLRRRTDRLAVLATWLGCLVASAPQVHIFSLREVADGVFDCWAVFIQPWGPKAYITWITLAVYIVPVIVLAACYGLISFKIWQNLRLKTAAAAAAEAPEGAAAGDGGRVALARVSSVKLISKAKIRTVKMTFIIVLAFIVCWTPFFFVQMWSVWDANAPKEASAFIIVMLLASLNSCCNPWIYMLFTGHLFHELVQRFLCCSASYLKGRRLGETSASKKSNSSSFVLSHRSSSQRSCSQPSTA [OXTR] | 5390 ± 230 | 
9 | MSPCGPLNLSLAGEATTCAAPWVPNTSAVPPSGASPALPIFSMTLGAVSNLLALALLAQAAGRLRRRRSAATFLLFVASLLATDLAGHVIPGALVLRLYTAGRAPAGGACHFLGGCMVFFGLCPLLLGCGMAVERCVGVTRPLLHAARVSVARARLALAAVAAVALAVALLPLARVGRYELQYPGTWCFIGLGPPGGWRQALLAGLFASLGLVALLAALVCNTLSGLALLRARWRRRSRRPPPASGPDSRRRWGAHGPRSASASSASSIASASTFFGGSRSSGSARRARAHDVEMVGQLVGIMVVSCICWSPMLVLVALAVGGWSSTSLQRPLFLAVRLASWNQILDPWVYILLRQAVLRQLLRLLPPRAGAKGGPAGLGLTPSAWEASSLRSSRHSGLSHF [PTGER1] | 1460 ± 250 | 
10 | MEARNQTAISKFLLLGLIEDPELQPVLFSLFLSMYLVTILGNLLILLAVISDSHLHTPMYFFLSNLSFLDICLSTTTIPKMLVNIQAQNRSITYSGCLTQICFVLFFAGLENCLLAAMAYDRYVAICHPLRYTVIMNPRLCGLLILLSLLTSVVNALLLSLMVLRLSFCTDLEIPLFFCELAQVIQLTCSDTLINNILIYFAACIFGGVPLSGIILSYTQITSCVLRMPSASGKHKAVSTCGSHLSIVLLFYGAGLGVYISSVVTDSPRKTAVASVMYSVFPQMVNPFIYSLRNKDMKGTLRKFIGRIPSLLWCAICFGFRFLE [OR7G2] |  | plasma membrane surface immunostaining intensity (GPCR class: A (Olfactory)): 165 ± 53
